What was measured:
[1] = RT-qPCR of IBV gRNA and sgRNA2; conditions: glycan lost; control: WTrIBV
[2] = growth curve, TCID50, Vero cells; conditions: glycan lost; control: WTrIBV
[3] = plaque size and shape, Vero cells; conditions: glycan lost; control: WTrIBV
[4] = indirect immunofluorescence, infected Vero cells; conditions: glycan lost; control: WTrIBV
[5] = 20-60% sucrose gradient ultracentrifugation, anti-M blot; conditions: glycan lost; control: WTrIBV
[6] = co-expression with E in COS-7, pelleted VLP blot; conditions: glycan lost; control: MWT

B1: IBV M protein (membrane protein): rN3D/N6D (protein)
parent chain: MPNETNCTLDFEQSVQLFKEYNLFITAFLLFLTIILQYGYATRSKVIYTLKMIVLWCFWPLNIAVGVISCTYPPNTGGLVAAIILTVFACLSFVGYWIQSIRLFKRCRSWWSFNPESNAVGSILLTNGQQCNFAIESVPMVLSPIIKNGVLYCEGQWLAKCEPDHLPKDIFVCTPDRRNIYRMVQKYTGDQSGNKKRFATFVYAKQSVDTGELESVATGGSSLYT
no change: other: viral replication [1] | other: viral replication [2] | other: viral replication [3] | localisation_or_trafficking [4] | other: virion sedimentation [5]

B2: IBV M protein (membrane protein): MN3D/N6D (protein)
parent chain: B1 parent chain
no change: other: VLP formation [6]
